Data taken from patent US20210163606A1.

Biological target: NRP2 endogenous on U251 glioblastoma cells and on human lymphatic endothelial cells (HLEC) (human) (UniProt O60462)
Test: cell-based or functional assay

Chain of NRP2 endogenous on U251 glioblastoma cells and on human lymphatic endothelial cells (HLEC) (human) (O60462 21-931): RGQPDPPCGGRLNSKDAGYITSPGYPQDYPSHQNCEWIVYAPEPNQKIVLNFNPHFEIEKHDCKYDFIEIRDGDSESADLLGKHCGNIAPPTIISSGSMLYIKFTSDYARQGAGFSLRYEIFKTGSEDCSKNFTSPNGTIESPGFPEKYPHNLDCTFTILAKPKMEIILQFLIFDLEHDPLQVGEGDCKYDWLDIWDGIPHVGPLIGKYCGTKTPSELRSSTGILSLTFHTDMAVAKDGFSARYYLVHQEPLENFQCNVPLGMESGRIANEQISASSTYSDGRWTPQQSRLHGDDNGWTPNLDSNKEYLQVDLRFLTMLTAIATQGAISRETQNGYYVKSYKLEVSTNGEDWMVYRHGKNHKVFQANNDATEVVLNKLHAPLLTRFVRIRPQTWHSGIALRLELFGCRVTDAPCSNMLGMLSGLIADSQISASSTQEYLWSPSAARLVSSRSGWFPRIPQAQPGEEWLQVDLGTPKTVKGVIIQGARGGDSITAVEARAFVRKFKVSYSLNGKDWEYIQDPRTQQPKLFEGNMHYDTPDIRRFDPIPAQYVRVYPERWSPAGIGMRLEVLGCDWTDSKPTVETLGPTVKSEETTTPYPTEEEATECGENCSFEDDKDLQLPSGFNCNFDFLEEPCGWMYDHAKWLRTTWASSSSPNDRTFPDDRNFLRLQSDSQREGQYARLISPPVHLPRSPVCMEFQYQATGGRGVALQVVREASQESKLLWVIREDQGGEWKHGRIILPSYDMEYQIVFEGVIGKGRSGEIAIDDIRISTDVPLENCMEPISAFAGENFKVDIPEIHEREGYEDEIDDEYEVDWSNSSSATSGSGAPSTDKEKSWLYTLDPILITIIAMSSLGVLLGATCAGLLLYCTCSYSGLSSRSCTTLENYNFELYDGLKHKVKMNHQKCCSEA

- decrease in intracellular phospho-Akt levels in U251 cells: 50%
Substance: Semaphorin 3F (SEMA3F) (from UniProt Q13275 19-779) (ligand)
